Test results reported in US12186374B2 (Sanofi-Aventis Deutschland GmbH, priority 2014, dated 2025).

How the values were obtained:
[1] = tested on: patients with T2DM; assay: Treatment-emergent adverse events incl. serious, fatal, leading to discontinuation (Example 3); conditions: Safety population
[2] = tested on: patients with T2DM; assay: ALT increase reported on AE form (Example 3); conditions: on-treatment period
[3] = tested on: patients with Type 2 diabetes mellitus (T2DM); assay: Patients with HbA1c ≤6.5% or <7% at Week 30 (Example 2); format: in vivo, human; conditions: mITT population
From the text: Efficacy analysis was based on modified intent-to-treat (mITT) population using efficacy assessments collected during the study, including those obtained after IMP discontinuation or introduction of rescue therapy. The mITT population consisted of all randomized patients who had both a baseline assessment and at least one post-baseline assessment of any primary or secondary efficacy variables.
Similar MMRM method or ANCOVA was applied on continuous secondary efficacy endpoints and Cochran-Mantei-Haenszel method stratified by randomization strata was applied on categorical efficacy endpoints.

**Q.** With “Gly(A21)-Arg(B31)-Arg(B32)-human insulin [Insulin Glargine]” as the substance, how does the “Number of patients experiencing serious TEAE(s): Cholecystitis acute” value ([1]; PT) read?
**A.** The value was 1.

**Q.** And the “Number of patients experiencing serious TEAE(s): Cholecystitis chronic” value ([1]; PT)?
**A.** Its value is 0.

**Q.** What about the “Number of patients experiencing serious TEAE(s): Gallbladder cancer” value ([1]; PT) of the same substance?
**A.** The value was 1.

**Q.** And the “Number of patients experiencing serious TEAE(s): Glaucoma” value ([1]; PT)?
**A.** The value was 1.

**Q.** What about the “Number of patients experiencing serious TEAE(s): Hypertension” value ([1]; PT) of the same substance?
**A.** Its value is 1.

**Q.** And the “Number of patients experiencing serious TEAE(s): Hypoglycaemia” value ([1]; PT)?
**A.** Its value is 1.

**Q.** What about the “Number of patients experiencing serious TEAE(s): Hypoglycaemic seizure” value ([1]; PT) of the same substance?
**A.** The value was 0.

**Q.** What about the “Number of patients experiencing serious TEAE(s): Hypoglycaemic unconsciousness” value ([1]; PT) of the same substance?
**A.** The value was 0.

**Q.** And the “Number of patients experiencing serious TEAE(s): Intervertebral disc protrusion” value ([1]; PT)?
**A.** The value was 1.

**Q.** What about the “Number of patients experiencing serious TEAE(s): Kaposi’s sarcoma” value ([1]; PT) of the same substance?
**A.** Its value is 1.

**Q.** And the “Number of patients experiencing serious TEAE(s): Meniscus injury” value ([1]; PT)?
**A.** Its value is 1.

**Q.** What about the “Number of patients experiencing serious TEAE(s): Myocardial infarction” value ([1]; PT) of the same substance?
**A.** The value was 0.

**Q.** What about the “Number of patients experiencing serious TEAE(s): Non-cardiac chest pain” value ([1]; PT) of the same substance?
**A.** The value was 2.

**Q.** And the “Number of patients experiencing serious TEAE(s): Osteoarthritis” value ([1]; PT)?
**A.** Its value is 0.

**Q.** What about the “Number of patients experiencing serious TEAE(s): Osteomyelitis” value ([1]; PT) of the same substance?
**A.** Its value is 1.

**Q.** And the “Number of patients experiencing serious TEAE(s): Pneumonia” value ([1]; PT)?
**A.** The value was 1.

**Q.** And the “Number of patients experiencing serious TEAE(s): Renal impairment” value ([1]; PT)?
**A.** Its value is 1.

**Q.** And the “Number of patients experiencing serious TEAE(s): Scar” value ([1]; PT)?
**A.** Its value is 0.

**Q.** And the “Number of patients experiencing serious TEAE(s): Squamous cell carcinoma of the tongue” value ([1]; PT)?
**A.** Its value is 0.

**Q.** What about the “Number of patients experiencing serious TEAE(s): Subdural haematoma” value ([1]; PT) of the same substance?
**A.** Its value is 0.

**Q.** What about the “Number of patients experiencing serious TEAE(s): Supraventricular tachycardia” value ([1]; PT) of the same substance?
**A.** Its value is 0.

**Q.** And the “Number of patients experiencing serious TEAE(s): Tendonitis” value ([1]; PT)?
**A.** The value was 0.

**Q.** And the “Number of patients experiencing serious TEAE(s): Wound infection” value ([1]; PT)?
**A.** Its value is 1.

**Q.** And the “% of patients experiencing TEAE(s) leading to permanent treatment discontinuation: Cardiac disorders” value ([1]; SOC)?
**A.** Its value is “(0.3%)”.

**Q.** What about the “% of patients experiencing TEAE(s) leading to permanent treatment discontinuation: Neoplasms benign, malignant and unspecified (incl cysts and polyps)” value ([1]; SOC) of the same substance?
**A.** Its value is “(0.3%)”.

**Q.** What about the “% of patients experiencing TEAE(s) leading to permanent treatment discontinuation: Pregnancy, puerperium and perinatal conditions” value ([1]; SOC) of the same substance?
**A.** Its value is “(0.3%)”.

**Q.** What about the “% of patients experiencing serious TEAE(s): Cardiac disorders” value ([1]; SOC) of the same substance?
**A.** The value was “(0.5%)”.

**Q.** What about the “% of patients experiencing serious TEAE(s): Eye disorders” value ([1]; SOC) of the same substance?
**A.** The value was “(0.3%)”.

**Q.** And the “% of patients experiencing serious TEAE(s): General disorders and administration site conditions” value ([1]; SOC)?
**A.** Its value is “(0.8%)”.

**Q.** What about the “% of patients experiencing serious TEAE(s): Hepatobiliary disorders” value ([1]; SOC) of the same substance?
**A.** The value was “(0.3%)”.

**Q.** And the “% of patients experiencing serious TEAE(s): Infections and infestations” value ([1]; SOC)?
**A.** Its value is “(0.8%)”.

**Q.** And the “% of patients experiencing serious TEAE(s): Injury, poisoning and procedural complications” value ([1]; SOC)?
**A.** Its value is “(0.3%)”.

**Q.** What about the “% of patients experiencing serious TEAE(s): Metabolism and nutrition disorders” value ([1]; SOC) of the same substance?
**A.** The value was “(0.3%)”.

**Q.** What about the “% of patients experiencing serious TEAE(s): Musculoskeletal and connective tissue disorders” value ([1]; SOC) of the same substance?
**A.** Its value is “(0.3%)”.

**Q.** And the “% of patients experiencing serious TEAE(s): Neoplasms benign, malignant and unspecified (incl cysts and polyps)” value ([1]; SOC)?
**A.** The value was “(0.5%)”.

**Q.** And the “% of patients experiencing serious TEAE(s): Renal and urinary disorders” value ([1]; SOC)?
**A.** Its value is “(0.3%)”.

**Q.** What about the “% of patients experiencing serious TEAE(s): Reproductive system and breast disorders” value ([1]; SOC) of the same substance?
**A.** Its value is “(0.3%)”.

**Q.** What about the “% of patients experiencing serious TEAE(s): Vascular disorders” value ([1]; SOC) of the same substance?
**A.** Its value is “(0.3%)”.

**Q.** And the “Number of patients experiencing TEAE(s) leading to permanent treatment discontinuation: Cardiac disorders” value ([1]; SOC)?
**A.** Its value is 1.

**Q.** And the “Number of patients experiencing TEAE(s) leading to permanent treatment discontinuation: Gastrointestinal disorders” value ([1]; SOC)?
**A.** The value was 0.

**Q.** What about the “Number of patients experiencing TEAE(s) leading to permanent treatment discontinuation: Infections and infestations” value ([1]; SOC) of the same substance?
**A.** Its value is 0.

**Q.** What about the “Number of patients experiencing TEAE(s) leading to permanent treatment discontinuation: Investigations” value ([1]; SOC) of the same substance?
**A.** Its value is 0.

**Q.** What about the “Number of patients experiencing TEAE(s) leading to permanent treatment discontinuation: Neoplasms benign, malignant and unspecified (incl cysts and polyps)” value ([1]; SOC) of the same substance?
**A.** The value was 1.

**Q.** And the “Number of patients experiencing TEAE(s) leading to permanent treatment discontinuation: Nervous system disorders” value ([1]; SOC)?
**A.** The value was 0.

**Q.** What about the “Number of patients experiencing TEAE(s) leading to permanent treatment discontinuation: Pregnancy, puerperium and perinatal conditions” value ([1]; SOC) of the same substance?
**A.** Its value is 1.

**Q.** And the “Number of patients experiencing serious TEAE(s): Cardiac disorders” value ([1]; SOC)?
**A.** The value was 2.

**Q.** What about the “Number of patients experiencing serious TEAE(s): Eye disorders” value ([1]; SOC) of the same substance?
**A.** Its value is 1.

**Q.** And the “Number of patients experiencing serious TEAE(s): General disorders and administration site conditions” value ([1]; SOC)?
**A.** The value was 3.

**Q.** And the “Number of patients experiencing serious TEAE(s): Hepatobiliary disorders” value ([1]; SOC)?
**A.** Its value is 1.

**Q.** What about the “Number of patients experiencing serious TEAE(s): Infections and infestations” value ([1]; SOC) of the same substance?
**A.** Its value is 3.

**Q.** What about the “Number of patients experiencing serious TEAE(s): Injury, poisoning and procedural complications” value ([1]; SOC) of the same substance?
**A.** Its value is 1.

**Q.** And the “Number of patients experiencing serious TEAE(s): Metabolism and nutrition disorders” value ([1]; SOC)?
**A.** The value was 1.

**Q.** And the “Number of patients experiencing serious TEAE(s): Musculoskeletal and connective tissue disorders” value ([1]; SOC)?
**A.** Its value is 1.

**Q.** And the “Number of patients experiencing serious TEAE(s): Neoplasms benign, malignant and unspecified (incl cysts and polyps)” value ([1]; SOC)?
**A.** The value was 2.

**Q.** And the “Number of patients experiencing serious TEAE(s): Nervous system disorders” value ([1]; SOC)?
**A.** The value was 0.

**Q.** And the “Number of patients experiencing serious TEAE(s): Renal and urinary disorders” value ([1]; SOC)?
**A.** The value was 1.

**Q.** What about the “Number of patients experiencing serious TEAE(s): Reproductive system and breast disorders” value ([1]; SOC) of the same substance?
**A.** The value was 1.

**Q.** And the “Number of patients experiencing serious TEAE(s): Vascular disorders” value ([1]; SOC)?
**A.** Its value is 1.

**Q.** What about the “% of patients experiencing TEAE(s) leading to permanent treatment discontinuation: Any TEAE leading to permanent treatment discontinuation” value [1] of the same substance?
**A.** The value was “(0.8%)”.

**Q.** What about the “% of patients experiencing serious TEAE(s): Any serious TEAE” value [1] of the same substance?
**A.** The value was “(4.9%)”.

**Q.** What about the “Number of patients experiencing TEAE(s) leading to permanent treatment discontinuation: Any TEAE leading to permanent treatment discontinuation” value [1] of the same substance?
**A.** The value was 3.

**Q.** What about the “Number of patients experiencing serious TEAE(s): Any serious TEAE” value [1] of the same substance?
**A.** The value was 18.

**Q.** What about the “Patients with any TEAE, number” value [1] of the same substance?
**A.** The value was 191 n.

**Q.** And the “Patients with any TEAE, percentage” value [1]?
**A.** Its value is “(52.3%)”.

**Q.** What about the “Patients with AE of ALT increase” value ([2]; Example 3) of the same substance?
**A.** The value was 2 patients.

**Q.** What about the “% of patients with events reported on the AE form for ALT increase: Alanine aminotransferase increased” value ([2]; PT, Safety population) of the same substance?
**A.** The value was 0.5%.

**Q.** And the “Number of patients with events reported on the AE form for ALT increase: Alanine aminotransferase increased” value ([2]; PT, Safety population)?
**A.** Its value is 2.

**Q.** What about the “Number of patients with events reported on the AE form for ALT increase: Hepatic enzyme increased” value ([2]; PT, Safety population) of the same substance?
**A.** The value was 0.

**Q.** What about the “% of patients with events reported on the AE form for ALT increase: Any” value ([2]; Safety population) of the same substance?
**A.** The value was 0.5%.

**Q.** And the “Number of patients with events reported on the AE form for ALT increase: Any” value ([2]; Safety population)?
**A.** Its value is 2.

**Q.** And the “% of patients with HbA1c ≤[…] at Week 30” value [3]?
**A.** Its value is “(39.5%)”.

**Q.** What about the “Number of patients with HbA1c ≤[…] at Week 30” value [3] of the same substance?
**A.** Its value is 184 patients.

**Q.** What about the “% of patients with HbA1c ≤[…] at Week 30” value ([3]; listed as insulin glargine) of the same substance?
**A.** Its value is 39.5%.
